From ChEMBL document CHEMBL3860051, “Phosphorothioate analogs of P1,P3-di(nucleosid-5'-yl) triphosphates: Synthesis, assignment of the absolute configuration at P-atoms and P-stereodependent recognition by Fhit hydrolase” (Bioorg Med Chem, 2016)

How the values were obtained:
[1] = target: Bis(5'-adenosyl)-triphosphatase (Homo sapiens) (UniProt P49789); test: Activity at human Fhit expressed in Escherichia coli BL 21 assessed as enzyme Km by Michaelis-Menten equation relative to control
[2] = system: Nc1ncnc2c1ncn2[C@@H]1O[C@H](CO[P@@](=O)(S)OP(=O)(O)O[P@](=O)(S)OC[C@H]2O[C@@H](n3cnc4c(N)ncnc43)[C@H](O)[C@@H]2O)[C@@H](O)[C@H]1O; test: (§1) Activity at human Fhit expressed in Escherichia coli BL21 assessed as enzyme Km by Michaelis-Menten equation
[3] = system: Nc1ncnc2c1ncn2[C@@H]1O[C@H](CO[P@](=O)(S)OP(=O)(O)O[P@@](=O)(S)OC[C@H]2O[C@@H](n3cnc4c(N)ncnc43)[C@H](O)[C@@H]2O)[C@@H](O)[C@H]1O; test: as §1
[4] = system: Nc1ncnc2c1ncn2[C@@H]1O[C@H](CO[P@](=O)(S)OP(=O)(O)O[P@](=O)(S)OC[C@H]2O[C@@H](n3cnc4c(N)ncnc43)[C@H](O)[C@@H]2O)[C@@H](O)[C@H]1O; test: as §1
[5] = system: Nc1ncnc2c1ncn2[C@@H]1O[C@H](CO[P@@](=O)(S)OP(=O)(O)O[P@](=O)(S)OC[C@H]2O[C@@H](n3cnc4c(N)ncnc43)[C@H](O)[C@@H]2O)[C@@H](O)[C@H]1O; test: (§2) Activity at human Fhit expressed in Escherichia coli BL21 assessed as enzyme Kcat by Michaelis-Menten equation
[6] = system: Nc1ncnc2c1ncn2[C@@H]1O[C@H](CO[P@](=O)(S)OP(=O)(O)O[P@@](=O)(S)OC[C@H]2O[C@@H](n3cnc4c(N)ncnc43)[C@H](O)[C@@H]2O)[C@@H](O)[C@H]1O; test: as §2
[7] = system: Nc1ncnc2c1ncn2[C@@H]1O[C@H](CO[P@](=O)(S)OP(=O)(O)O[P@](=O)(S)OC[C@H]2O[C@@H](n3cnc4c(N)ncnc43)[C@H](O)[C@@H]2O)[C@@H](O)[C@H]1O; test: as §2
[8] = system: Nc1ncnc2c1ncn2[C@@H]1O[C@H](CO[P@@](=O)(S)OP(=O)(O)O[P@](=O)(S)OC[C@H]2O[C@@H](n3cnc4c(N)ncnc43)[C@H](O)[C@@H]2O)[C@@H](O)[C@H]1O; test: (§3) Activity at human Fhit expressed in Escherichia coli BL21 assessed as ratio of enzyme Kcat to Km by Michaelis-Menten equation
[9] = system: Nc1ncnc2c1ncn2[C@@H]1O[C@H](CO[P@](=O)(S)OP(=O)(O)O[P@@](=O)(S)OC[C@H]2O[C@@H](n3cnc4c(N)ncnc43)[C@H](O)[C@@H]2O)[C@@H](O)[C@H]1O; test: as §3
[10] = system: Nc1ncnc2c1ncn2[C@@H]1O[C@H](CO[P@](=O)(S)OP(=O)(O)O[P@](=O)(S)OC[C@H]2O[C@@H](n3cnc4c(N)ncnc43)[C@H](O)[C@@H]2O)[C@@H](O)[C@H]1O; test: as §3
[11] = system: Nc1ncnc2c1ncn2[C@@H]1O[C@H](COP(=O)(O)OP(=O)(O)OP(=O)(O)OC[C@H]2O[C@@H](n3cnc4c(N)ncnc43)[C@H](O)[C@@H]2O)[C@@H](O)[C@H]1O; test: Activity at human Fhit expressed in Escherichia coli SG100 assessed as enzyme Kcat by Michaelis-Menten equation
[12] = system: Nc1ncnc2c1ncn2[C@@H]1O[C@H](COP(=O)(O)OP(=O)(O)OP(=O)(O)OC[C@H]2O[C@@H](n3cnc4c(N)ncnc43)[C@H](O)[C@@H]2O)[C@@H](O)[C@H]1O; test: (§4) Activity at human Fhit expressed in Escherichia coli SG100 assessed as ratio of enzyme Kcat to Km by Michaelis-Menten equation
[13] = system: Nc1ncnc2c1ncn2[C@@H]1O[C@H](CO[P@](=O)(S)OP(=O)(O)OP(=O)(O)OCc2cccc([N+](=O)[O-])c2)[C@@H](O)[C@H]1O; test: as §4
[14] = system: Nc1ncnc2c1ncn2[C@@H]1O[C@H](COP(=O)(O)OP(=O)(O)OP(=O)(O)OC[C@H]2O[C@@H](n3cnc4c(N)ncnc43)[C@H](O)[C@@H]2O)[C@@H](O)[C@H]1O; test: (§5) Activity at human Fhit expressed in Escherichia coli SG100 assessed as enzyme Km by Michaelis-Menten equation
[15] = system: Nc1ncnc2c1ncn2[C@@H]1O[C@H](CO[P@](=O)(S)OP(=O)(O)OP(=O)(O)OCc2cccc([N+](=O)[O-])c2)[C@@H](O)[C@H]1O; test: as §5
[16] = system: Nc1ncnc2c1ncn2[C@@H]1O[C@H](CO[P@](=O)(S)OP(=O)(O)OP(=O)(O)OCc2cccc([N+](=O)[O-])c2)[C@@H](O)[C@H]1O; test: Activity at human Fhit expressed in Escherichia coli SG100 assessed as enzyme Vmax by Michaelis-Menten equation

Chain of Bis(5'-adenosyl)-triphosphatase (Homo sapiens), P49789 (P49789 whole entry): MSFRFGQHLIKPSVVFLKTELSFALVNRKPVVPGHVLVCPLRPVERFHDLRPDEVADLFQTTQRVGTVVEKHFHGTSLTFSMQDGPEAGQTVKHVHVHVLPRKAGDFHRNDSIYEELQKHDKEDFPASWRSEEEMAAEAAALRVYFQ
Chain of Bis(5'-adenosyl)-triphosphatase (Homo sapiens) (P49789 whole entry, looked up): as the sequence (P49789 whole entry) above

`Nc1ncnc2c1ncn2[C@@H]1O[C@H](CO[P@@](=O)(S)OP(=O)(O)O[P@](=O)(S)OC[C@H]2O[C@@H](n3cnc4c(N)ncnc43)[C@H](O)[C@@H]2O)[C@@H](O)[C@H]1O` was tested, and the fold change (FC) [1] was 2.8.
`Nc1ncnc2c1ncn2[C@@H]1O[C@H](CO[P@](=O)(S)OP(=O)(O)O[P@@](=O)(S)OC[C@H]2O[C@@H](n3cnc4c(N)ncnc43)[C@H](O)[C@@H]2O)[C@@H](O)[C@H]1O` was tested, and the fold change (FC) [1] was 2.8.
For `Nc1ncnc2c1ncn2[C@@H]1O[C@H](CO[P@](=O)(S)OP(=O)(O)O[P@](=O)(S)OC[C@H]2O[C@@H](n3cnc4c(N)ncnc43)[C@H](O)[C@@H]2O)[C@@H](O)[C@H]1O`, the fold change (FC) [1] was 2.8.
For “Bis(5'-adenosyl)-triphosphatase (Homo sapiens), P49789”, the Km [2] was 5.32 µM, the Km [3] was 3.54 µM and the Km [4] was 1.25 µM. It also gave a kcat [5] of 8.4 ×10⁻⁴ /s, a kcat [6] of 4.8 ×10⁻⁴ /s and a kcat [7] of 29.9 ×10⁻⁴ /s. It also gave a kcat/Km [8] of 1.7 ×10² /M/s, a kcat/Km [9] of 1.4 ×10² /M/s and a kcat/Km [10] of 24 ×10² /M/s. It also gave a kcat [11] of 73 s⁻¹, a kcat/Km [12] of 3.8 ×10⁷ /M/s and a kcat/Km [13] of 0.125 ×10⁶ /s/M. It also gave a Km [14] of 1.9 µM, a Km [15] of 2.8 µM and a Vmax (10'-6mol/min/ug) [16] of 0.35.
